The target in the assay is recombinant CA/09 NA protein (baculovirus, with N-terminal His-tag, tetramerization domain and thrombin site) (human; influenza A virus …, UniProt P50552 336-380).
recombinant CA/09 NA protein (baculovirus, with N-terminal His-tag, tetramerization domain and thrombin site), sequence (P50552 336-380): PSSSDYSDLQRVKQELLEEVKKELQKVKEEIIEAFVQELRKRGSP

B1: mAb CD6 (whole IgG) (antibody, V domains shown)
VH: QVKLQESGGGLVQPKGSLKLSCAASGFTFNTYAMNWVRQAPGKGLEWVARIRSKSNNYATFYADSVKDRFTISRDDSQSMLYLQMHNLKTDDTAMYYCVRPSIYYYASGYLDVWGAGTTVTVSS
VL: QIVLSQSPAILSASPGEKVTMTCRTSSSVSYMHWYQQKPGSSPKPWIYATSNLASGVPFRFSGSGSGTSYSLTISRVEAEDAATYYCQQWNSNPPTFGGGTKLEIKR
For the molecule B1, the Kd (commonly the free concentration of one partner at which half of the binding sites on the other are occupied at equilibrium, for simple one-to-one binding) is about 95 nM.
